“And” between values parts separate entries of the source, which are not always exact repeats. Identical values can stand only once.
What was measured:
E. coli RecR tetramer [1] = target: T1, E. coli RecR tetramer (E. coli, UniProt P0A7H6 1-201); assay: AUC; sedimentation velocity, RecO (1.5 μM) titrated with RecR (1.5-9 μM monomer; 1:1 to 1:6), no P15, buffer BTP (pH 8.0), 25°C; K3 and K4 from SedAnal simulations (Scheme 1) that best describe the c(s) profiles
T1 construct: RecR, E. coli; tetramer 87.8 kDa; Same preparation as m2; the tetrameric state, which is the one found in complexes with RecO; also called RecR4; R4; source: E. coli BL21 Rosetta 2(DE3)pLysS, purified (Ni-NTA)
T1 sequence (looked up): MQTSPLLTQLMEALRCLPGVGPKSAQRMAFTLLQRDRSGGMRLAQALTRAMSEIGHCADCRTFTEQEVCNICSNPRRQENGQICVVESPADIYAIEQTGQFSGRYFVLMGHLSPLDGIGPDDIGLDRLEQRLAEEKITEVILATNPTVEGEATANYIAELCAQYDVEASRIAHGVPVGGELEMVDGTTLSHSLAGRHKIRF

E. coli RecR tetramer [2] = target: T1, E. coli RecR tetramer; assay: AUC; sedimentation equilibrium, RecO 1.5 μM + RecR 1.5 μM monomer (1:1), no P15, buffer BTP (pH 8), 25°C, 18 000, 23 000, 28 000 rpm; two-species model, free RecO fixed
E. coli RecR tetramer [3] = target: T1, E. coli RecR tetramer; assay: AUC; sedimentation equilibrium, RecO 1.5 μM + RecR 6 μM monomer (1:4), no P15, buffer BTP (pH 8), 25°C, 18 000, 23 000, 28 000 rpm; two-species model, free RecR dimer fixed
[4] = target: Escherichia coli RecR protein (E. coli) (UniProt P0A7H6); assay: AUC; sedimentation equilibrium of RecR alone, 4, 8 and 12 μM (monomer), buffer BTP pH 8.0, 50 mM NaCl, 25°C; dimers to tetramer, Lobs = [R4]/[R2]^2; at 8 μM also a two-species model with the second mass floated
[5] = target: Escherichia coli RecR protein (E. coli) (UniProt P0A7H6); assay: AUC; sedimentation equilibrium of RecR alone, buffer BTP pH 8.0, 50 mM NaCl + 10 mM MgCl2, 25°C; dimers to tetramer
[6] = target: Escherichia coli RecR protein (E. coli) (UniProt P0A7H6); assay: AUC; sedimentation equilibrium of RecR alone, 4, 8 and 12 μM (monomer), buffer BTP pH 9.0, 50 mM NaCl, 25°C; dimers to tetramer, Lobs = [R4]/[R2]^2
[7] = target: Escherichia coli RecR protein (E. coli) (UniProt P0A7H6); assay: AUC; sedimentation equilibrium of RecR alone, buffer BTP pH 8.0 with 200 mM NaCl, 25°C; dimers to tetramer
[8] = target: Escherichia coli RecR protein (E. coli) (UniProt P0A7H6); assay: AUC; sedimentation velocity of RecR alone, eight concentrations 2-20 μM (monomer), buffer BTP (pH 8.0), 25°C, 233 nm
[9] = target: Escherichia coli RecR protein (E. coli) (UniProt P0A7H6); assay: AUC; sedimentation equilibrium of RecR alone, buffer BTP, 37°C; dimers to tetramer
[10] = target: Escherichia coli RecR protein (E. coli) (UniProt P0A7H6); assay: AUC; sedimentation equilibrium of RecR alone, 4, 8 and 12 μM (monomer), buffer BTP pH 8.5, 50 mM NaCl, 25°C; dimers to tetramer, Lobs = [R4]/[R2]^2
[11] = target: Escherichia coli RecR protein (E. coli) (UniProt P0A7H6); assay: AUC; sedimentation equilibrium of RecR alone, 4, 8 and 12 μM (monomer), buffer BTP pH 6.4, 50 mM NaCl, 25°C; dimers to tetramer, Lobs = [R4]/[R2]^2
[12] = target: Escherichia coli RecR protein (E. coli) (UniProt P0A7H6); assay: AUC; sedimentation equilibrium of RecR alone, 4, 8 and 12 μM (monomer), buffer BTP pH 7.0, 50 mM NaCl, 25°C; dimers to tetramer, Lobs = [R4]/[R2]^2
[13] = target: Escherichia coli RecR protein (E. coli) (UniProt P0A7H6); assay: AUC; sedimentation equilibrium of RecR alone, 4, 8 and 12 μM (monomer), buffer BTP pH 7.5, 50 mM NaCl, 25°C; dimers to tetramer, Lobs = [R4]/[R2]^2
E. coli RecR tetramer [14] = target: T1, E. coli RecR tetramer; assay: AUC; sedimentation equilibrium, RecO 1.5 μM + RecR 6 μM (1:4) with P15 (9 μM), buffer BTP (pH 8), 25°C, 19 000, 24 000, 29 000 rpm; one-species model; conditions: both partners purified
E. coli RecR tetramer [15] = target: T1, E. coli RecR tetramer; assay: AUC; sedimentation equilibrium, RecR 2 μM monomer, RecO 6 μM (3:1), P15 36 μM, buffer BTP (pH 8.0), 25°C, 19 000, 24 000, 29 000 rpm; two-species model, RecO-P15 fixed at 29.1 kDa; conditions: both partners purified
E. coli RecR tetramer [16] = target: T1, E. coli RecR tetramer; assay: AUC; sedimentation equilibrium, RecO 1.5 μM + RecR 1.5 μM (1:1) with P15 (9 μM), buffer BTP (pH 8), 25°C, 19 000, 24 000, 29 000 rpm; two-species model; conditions: both partners purified
[17] = target: T2, Escherichia coli RecO protein (E. coli, UniProt P0A7H3 1-242); assay: ITC; pH 8, 25°C
T2 chain: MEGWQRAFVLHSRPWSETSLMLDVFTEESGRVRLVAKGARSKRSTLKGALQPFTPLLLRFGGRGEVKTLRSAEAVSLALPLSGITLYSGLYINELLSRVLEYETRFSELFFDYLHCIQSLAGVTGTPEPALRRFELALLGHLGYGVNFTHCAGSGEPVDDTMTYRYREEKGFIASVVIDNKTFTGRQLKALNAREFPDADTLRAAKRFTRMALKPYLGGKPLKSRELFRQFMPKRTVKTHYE

[18] = target: T3, RecOR complex (pre-mixed RecO and RecR, 1:4 molar ratio) (E. coli, UniProt P0A7H3 1-242; P0A7H6 1-201); assay: ITC; P15 (50 μM) titrated into a pre-mixed solution of RecO (2 μM) and RecR (8 μM monomer), buffer BTP, pH 8.0, 25°C; conditions: both partners purified
T3 construct: RecO, E. coli; as m1; RecR, E. coli; as m2; also called pre-mixed solution of RecO (2 μM) and RecR (8 μM monomer); source: purified RecO and purified RecR (both from E. coli), pre-mixed; copies: + 4
T3 sequence (looked up) 1: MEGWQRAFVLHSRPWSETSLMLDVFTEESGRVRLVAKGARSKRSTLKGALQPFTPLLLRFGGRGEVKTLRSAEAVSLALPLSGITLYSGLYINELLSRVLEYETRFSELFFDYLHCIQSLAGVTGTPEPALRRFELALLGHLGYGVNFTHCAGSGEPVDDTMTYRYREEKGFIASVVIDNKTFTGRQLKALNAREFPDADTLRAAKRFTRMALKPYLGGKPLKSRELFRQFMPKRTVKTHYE
T3 sequence (looked up) 2: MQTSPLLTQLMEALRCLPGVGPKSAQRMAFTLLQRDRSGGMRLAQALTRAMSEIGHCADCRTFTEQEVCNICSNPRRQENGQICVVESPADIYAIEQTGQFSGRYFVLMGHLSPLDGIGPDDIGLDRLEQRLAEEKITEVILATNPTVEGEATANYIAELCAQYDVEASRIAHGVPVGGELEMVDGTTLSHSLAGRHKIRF

**Q.** What does the source list for “Escherichia coli RecO protein (from UniProt P0A7H3 1-242) (natural protein)”?
**A.** K3 (association constant, first RecO to RecR4) (E. coli RecR tetramer [1]): 500000 M⁻¹; K4 (association constant, second RecO to RecR4O) (E. coli RecR tetramer [1]): 4e+08 M⁻¹; stoichiometry N (RecO per RecR tetramer) (E. coli RecR tetramer [2]): 2; stoichiometry N (RecO per RecR tetramer) (E. coli RecR tetramer [3]): 2

**Q.** How did the Ka [4] turn out when “Escherichia coli RecR protein (from UniProt P0A7H6 1-201) (natural protein)” was run?
**A.** Its Ka is 216000 M⁻¹.

**Q.** What about the stoichiometry N [4] of the same molecule?
**A.** The stoichiometry N was 4.

**Q.** What about the Ka [5] of the same molecule?
**A.** Its Ka is 72000 M⁻¹.

**Q.** And the Ka [6]?
**A.** The Ka was < 500 M⁻¹.

**Q.** What about the Ka [7] of the same molecule?
**A.** The Ka was 34900 M⁻¹.

**Q.** What about the stoichiometry N [8] of the same molecule?
**A.** The stoichiometry N was 2 and 4.

**Q.** What about the Ka [9] of the same molecule?
**A.** The Ka was 149000 M⁻¹.

**Q.** What about the Ka [10] of the same molecule?
**A.** The Ka was 4320 M⁻¹.

**Q.** And the Ka [11]?
**A.** Its Ka is 267000 M⁻¹.

**Q.** What about the Ka [12] of the same molecule?
**A.** Its Ka is 1.65e+06 M⁻¹.

**Q.** What about the Ka [13] of the same molecule?
**A.** The Ka was 568000 M⁻¹.

B1: RecO–P15 complex (complex, E. coli)
chain: MEGWQRAFVLHSRPWSETSLMLDVFTEESGRVRLVAKGARSKRSTLKGALQPFTPLLLRFGGRGEVKTLRSAEAVSLALPLSGITLYSGLYINELLSRVLEYETRFSELFFDYLHCIQSLAGVTGTPEPALRRFELALLGHLGYGVNFTHCAGSGEPVDDTMTYRYREEKGFIASVVIDNKTFTGRQLKALNAREFPDADTLRAAKRFTRMALKPYLGGKPLKSRELFRQFMPKRTVKTHYE
peptide: PSNEPPMDFDDDIPF
notes: RecO, E. coli; as m1; the 15 C-terminal amino acids of E. coli SSB; as m3; 29.1 kDa; also called RecO in the presence of a 6-fold molar excess of P15; source: RecO from E. coli BL21(DE3)pLysS, purified; P15 bought: WatsonBio; mixed with a six-fold molar excess of P15 over RecO; copies: 1 + 1
**Q.** Which “stoichiometry N” value (E. coli RecR tetramer [14]) does the source give for B1 here?
**A.** Its value is 1 RecO per RecR tetramer.

**Q.** What about the “stoichiometry N” value (E. coli RecR tetramer [15]) of the same molecule?
**A.** Its value is 2 RecO-P15 per RecR tetramer.

**Q.** What about the “stoichiometry N” value (E. coli RecR tetramer [16]) of the same molecule?
**A.** The value was 2 RecO per RecR tetramer.

B2: P15 peptide (the 15 C-terminal amino acids of E. coli SSB) (peptide)
peptide: PSNEPPMDFDDDIPF
notes: the 15 C-terminal amino acids of E. coli SSB; also called SSB-Ct peptide; SSB C-terminal acidic tip peptide; source: bought: WatsonBio
**Q.** How did the Ka [17] turn out when B2 was run?
**A.** Its Ka is 1.2e+07 M⁻¹.

**Q.** What about the dH [18] of the same molecule?
**A.** Its dH is < 4.18 kJ/mol.

Reference: PMC7913777, “Allosteric effects of SSB C-terminal tail on assembly of E. coli RecOR proteins” (Nucleic Acids Research, 2021)
